Test results reported in US6747136 (KAROLINA INNOVATIONS, dated 2004).
Residue numbers refer to the chain shown, from its start. “And” between values parts separate entries of the source, which are not always exact repeats. Identical values can stand only once.

B1: Fab molecule clone L3 (Fab, V domains shown)
VH: EVQLLESGGGVVQPGRSLRLSCAASGFTFKTYGMHWVRQAPGKGLEWVAGISFDGSNQYYADSVKGRFIVSRDNSRDTVFLQMSSLRLEDTAVYYCATEGSPFGSIKGRYYLENWGQGTLVTVSS
VL: AELTQSPATLSVSPGERASLSCRASQSVGNNLAWYQQKPGQAPRLLIYGGNTRATGTPDRFSGSGSGTEFTLTISSLQSEDFAVYFCQHYSTWPLTFGGGTKVEFK
B2: Fab molecule clone 1:7 (Fab, V domains shown)
VH: VQLLEQSGAEVKKPGSSVKVSCQVFGDTFSRYTIQWLRQAPGQGPEWMGNIIPVYNTPNYAQKFQGRLSITADDSTSTAYMELSSLRSEDTAVYFCARVVIPNAIRHTMGYYFDYWGQGTLVTVSS
VL: AELTQSPATLSLSPGERATLSCRASQSVNKYLAWYQQKPGQAPRLLIYDASNRATGIPARFSGSGSGTDFTLTISNLEPEDFAVYYCQQRSDWVTFGGGTKVEIK
B3: Fab molecule clone 1:5 (Fab, V domains shown)
VH: VQLLEQSGAEVRKPGSSVKVSCKASGGTFSGHVITWVRQAPGQGLEWMGESIPIFGSANYAQNYAQKFRDRVSIIADESTSTSFIELSNLRSDDTAVYYCARDPPRYCSAGRCYPGFFQQWGQGTLVTVSS
VL: AELTQSPGTLSLSPGERATLSCRASQSVSSNYLAWYQQRPGQAPRLLIYGASSRATGIPDRFSGSGSGTDFTLTISRLEPEDFAVYYCQLYGNSRWTFGQGTKVEIK
B4: Fab molecule clone 1:11 (Fab, V domains shown)
VH: VQLLEQSGAEVKKPGSSVKVSCKASGGTFSGHVISWVRQAPGQGLEWMGGSISFFGTSNSAQKFQGRVSITADESASTAYMELSSLRSEDTAIYYCAKDPPRFCSGGNCYPGFFQQWGQGTLVTVSS
VL: B3 VL with R23G, S29R, R39K, A51V, L90Q, N93S, R95P, W96R, V104L
B5: Fab molecule clone L1 (Fab, V domains shown)
VH: EVQLLESGGGVVQPGRSLRLSCAASGFTFSAYGMHWVRQAPGKGLEWVAGIWFDGSNQYYSDSVKGRFTVSRDNSRNTLFLQMNSLRPEDTAVYYCATEVLFGSIKGRYYLENWGQGTLVTVSS
VL: AELTQSPGTLSLSVGERATLSCRASQNIYSGYLGWYQQKPGQPPRLLIYGASNRATGIPDRFSGSGSGTDFTLTISRLESEDFAVYYCQQYGSPPYTFGQGTKVEIK
notes: also called Ll
B6: Fab molecule clone A8 (Fab, V domains shown)
VH: EVQLLESGPGLVKPSGTLSLTCTVSGGSIRSSHWWSWVRQPPGKGLEWIGEVFFSGSTIYNPSLNDRVFMSVDKSKDQVSLRLSSVTAADTAVYYCARSPIKMNQGRMMLDAFDIWGQGTLVIVSS
VL: AELTQSPSSLSAFVGDRVTITCRASQSISRNLNWYQQKPGTAPKVLIYAASSLQSGVPSRFSGSGSGTDFTLTITSLQPEDFATYYCQQSYTTPRTFGQGTKVEVK
B7: Fab molecule clone A12 (Fab, V domains shown)
VH: EVQLLESGSEVKKPGSSVKVSCRASGGSFRSYNFNWVRQAPGQGLEWMGGIIPMFGTANYAQKFQGRVTITADESTATGYMELSSLRSEDTAVYYCAMPYPKHCSRGSCWGWFDPWGQGTLVTVSS
VL: AELTQSPGTLSLSPGERATLSCRASQSLSSKYLAWYQQKPGQAPRLFIYDASSRATGIPDRFSGSGSGTDFTLSISRLEPEDFAVYYCQQYGTPRTFGQGTKVEIK

These binders were tested against T1, recombinant conformational HCV E2 antigen (HCV genotype 1a) (hepatitis C virus, HCV1 (genotype 1a), UniProt P26664 383-715) (assay: inhibition ELISA: coated E2 1a, soluble E2 as inhibitor).
T1 construct: range 383-715; also called CHO E2; E2 1a
T1 sequence (P26664 383-715): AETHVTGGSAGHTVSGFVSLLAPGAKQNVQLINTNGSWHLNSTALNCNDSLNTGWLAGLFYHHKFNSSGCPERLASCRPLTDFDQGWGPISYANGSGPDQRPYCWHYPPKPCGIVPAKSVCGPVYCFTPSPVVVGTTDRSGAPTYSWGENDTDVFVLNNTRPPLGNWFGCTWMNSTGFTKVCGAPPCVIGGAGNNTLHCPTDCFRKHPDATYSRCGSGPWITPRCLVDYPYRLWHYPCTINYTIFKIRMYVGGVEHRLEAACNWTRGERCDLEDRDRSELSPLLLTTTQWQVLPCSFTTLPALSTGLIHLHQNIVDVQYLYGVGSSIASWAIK
B1 was tested, and the Ka was about 4e+07 M⁻¹.
B2 gave a Ka of about 2e+08 M⁻¹.
Work on B3 yielded a Ka of under 1e+07 M⁻¹.
B4 was tested, and the Ka was about 4e+07 M⁻¹.
Work on B5 yielded a Ka of about 4e+07 M⁻¹.
Work on B6 yielded a Ka of about 2e+08 M⁻¹.
B7 showed a Ka of about 1e+07 M⁻¹.

The binders below were run against T1, recombinant conformational HCV E2 … (assay: not given).
B1 gave an IC50 of 0.02 µg/mL.
With B2 the IC50 was 0.02 µg/mL and 0.01 µg/mL.
With B3 the IC50 was 1.5 µg/mL and 2.5 µg/mL.
B5 was tested, and the IC50 was 0.02 µg/mL and 0.03 µg/mL.
For B6, the IC50 was 0.001 µg/mL.
B7 was tested, and the IC50 was 0.1 µg/mL.

What follows are binders tested against T2, bovine serum albumin (bovine, UniProt P02769 25-607) (assay: ELISA, coated BSA 5 ug/ml).
T2 construct: also called BSA
T2 sequence (P02769 25-607 limits assumed): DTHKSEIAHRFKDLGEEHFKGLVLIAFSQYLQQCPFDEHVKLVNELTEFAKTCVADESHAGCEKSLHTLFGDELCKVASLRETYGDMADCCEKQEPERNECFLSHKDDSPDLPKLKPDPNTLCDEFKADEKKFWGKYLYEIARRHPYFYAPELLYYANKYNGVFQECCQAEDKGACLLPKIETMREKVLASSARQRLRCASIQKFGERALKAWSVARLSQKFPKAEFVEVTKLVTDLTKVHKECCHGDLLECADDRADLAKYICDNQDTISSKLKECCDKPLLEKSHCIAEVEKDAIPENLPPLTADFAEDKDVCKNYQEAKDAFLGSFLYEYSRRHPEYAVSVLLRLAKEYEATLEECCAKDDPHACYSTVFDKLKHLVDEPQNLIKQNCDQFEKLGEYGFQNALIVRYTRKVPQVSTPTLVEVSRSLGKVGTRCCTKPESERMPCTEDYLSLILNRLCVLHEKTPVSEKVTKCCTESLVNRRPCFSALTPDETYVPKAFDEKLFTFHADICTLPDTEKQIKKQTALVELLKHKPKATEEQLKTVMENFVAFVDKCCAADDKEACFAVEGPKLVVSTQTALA
B1: no binding.
B2: no binding.
B3: no binding.

Biological target: T1, recombinant conformational HCV E2 …
Assay: not given
Remark: another data set of the same source
B1 showed a Kd of about 28 nM.
B2 was tested, and the Kd was about 6 nM.
B3 showed a Kd of over 100 nM.
Binder B4 has a Kd of about 28 nM.
Binder B5 has a Kd of about 28 nM.
Work on B6 yielded a Kd of about 6 nM.
For B7, the Kd was about 100 nM.

What follows are binders tested against T3, HCV E2 antigen (HCV genotype 1b) (hepatitis C virus genotype 1b) (assay: NOB assay: Fab pre-mixed with E2 1b, E2 binding to MOLT-4 cells by flow cytometry; 50% reduction titer, Exp. II).
T3 construct: also called E2 1b; E2 antigen of genotype 1b
B5 gave an IC50 of 0.03 µg/mL.

What follows are binders tested against recombinant HCV E1/E2 complex antigen (hepatitis C virus, HCV1, UniProt P26664 192-383; P26664 384-746) (assay: ELISA, […] (100 ug/ml) […]).
Chain of recombinant HCV E1/E2 complex antigen (P26664 192-383 limits assumed, chain 1 of 2): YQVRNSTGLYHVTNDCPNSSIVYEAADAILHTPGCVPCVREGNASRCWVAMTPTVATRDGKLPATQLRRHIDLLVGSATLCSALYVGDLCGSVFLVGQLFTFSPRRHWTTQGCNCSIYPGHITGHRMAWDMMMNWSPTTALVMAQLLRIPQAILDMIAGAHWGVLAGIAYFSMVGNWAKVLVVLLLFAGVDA
Chain of recombinant HCV E1/E2 complex antigen (P26664 384-746 limits assumed, chain 2 of 2): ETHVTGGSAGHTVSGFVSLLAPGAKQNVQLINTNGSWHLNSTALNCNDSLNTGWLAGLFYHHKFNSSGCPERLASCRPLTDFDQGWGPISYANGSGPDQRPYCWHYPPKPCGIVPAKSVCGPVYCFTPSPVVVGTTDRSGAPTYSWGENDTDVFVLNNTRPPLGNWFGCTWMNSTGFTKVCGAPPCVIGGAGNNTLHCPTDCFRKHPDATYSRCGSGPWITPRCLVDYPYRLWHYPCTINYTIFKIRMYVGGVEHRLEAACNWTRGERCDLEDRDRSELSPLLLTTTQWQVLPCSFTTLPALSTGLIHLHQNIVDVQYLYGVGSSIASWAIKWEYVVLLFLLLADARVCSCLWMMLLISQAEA
With B1 the “OD405 nm (ELISA reactivity)” value was 2.46 OD405 nm.
In the case of B2, the “OD405 nm (ELISA reactivity)” value is reported as over 3 OD405 nm.

The binders below were run against T1, recombinant conformational HCV E2 … (assay: ELISA, […] (100 ug/ml) […]).
For B1, the “OD405 nm (ELISA reactivity)” value was 1.7 OD405 nm.
B2 was tested, and the “OD405 nm (ELISA reactivity)” value was over 3 OD405 nm.

These binders were tested against T2, bovine serum albumin (assay: ELISA, […] (100 ug/ml) […]).
With B1 the “OD405 nm (ELISA reactivity)” value was 0.089 OD405 nm.
B2 was tested, and the “OD405 nm (ELISA reactivity)” value was 0.006 OD405 nm.
